Data: patent US20230374475A1

Experiments:
[1] = target: engineered T. gorgonarius reverse-transcriptase lacking proof reading activity (3'-5' exonuclease) (TgoRTxo) (Thermococcus gorgonarius (engineered)) (UniProt P56689); assay: cell-based or functional assay
[2] = target: T1, TgoRTxo (exonuclease-deficient engineered Tgo reverse transcriptase) (Thermococcus gorgonarius) (UniProt P56689); conditions: RT efficiency without KPCNA; Mg, dNTPs; about 45% with 1 uM KPCNA
T1 sequence: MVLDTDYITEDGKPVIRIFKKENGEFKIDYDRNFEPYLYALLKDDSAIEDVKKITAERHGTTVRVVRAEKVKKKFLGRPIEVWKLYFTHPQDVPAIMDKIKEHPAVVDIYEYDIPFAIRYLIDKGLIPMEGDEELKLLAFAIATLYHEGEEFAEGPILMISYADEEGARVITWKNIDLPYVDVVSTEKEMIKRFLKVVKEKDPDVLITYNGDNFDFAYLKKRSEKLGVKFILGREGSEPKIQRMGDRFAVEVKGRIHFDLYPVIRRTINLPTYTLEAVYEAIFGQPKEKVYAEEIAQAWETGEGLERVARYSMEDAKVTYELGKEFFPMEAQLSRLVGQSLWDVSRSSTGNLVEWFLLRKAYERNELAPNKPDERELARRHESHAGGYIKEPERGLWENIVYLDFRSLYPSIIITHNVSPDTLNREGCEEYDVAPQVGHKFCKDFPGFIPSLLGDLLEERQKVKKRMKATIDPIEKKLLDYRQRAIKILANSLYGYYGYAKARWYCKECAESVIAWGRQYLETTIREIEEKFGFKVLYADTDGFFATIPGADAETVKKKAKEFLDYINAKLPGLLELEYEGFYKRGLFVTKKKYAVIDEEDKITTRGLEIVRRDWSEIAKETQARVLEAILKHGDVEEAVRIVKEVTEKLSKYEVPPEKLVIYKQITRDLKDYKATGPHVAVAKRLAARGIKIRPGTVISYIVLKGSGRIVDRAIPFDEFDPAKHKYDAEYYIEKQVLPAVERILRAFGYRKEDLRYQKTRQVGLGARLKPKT

RT efficiency of TgoRTxo at 3.5 uM KPCNA compared to no KPCNA [1] [fold] | efficiency of reverse transcription (fold increase, KPCNA raised from 0 to 1 uM) [1] [fold] | reverse transcriptase efficiency of TgoRTxo in the absence of KPCNA (baseline) [1] [%] | reverse transcriptase efficiency of TgoRTxo with 1 uM KPCNA [1] [%] | Substance | activity [2] [%]
3 | 4 | 10 | 45 | T. kodakarensis proliferating cell nuclear antigen (KPCNA) (from UniProt Q5JF32 2-249) | –
– | – | – | – | ~600 nt RNA template with DNA primer | 10
